From patent publication US20100092484A1

Legend:
[1] = biological target: human CD44 (on cells) (human) (UniProt P16070); assay: cell-based or functional assay
[2] = biological target: human CD44-IgG1 fusion protein (extracellular domain of human CD44 fused to human IgG1) (human); assay: ELISA: antibody pre-mixed with human CD44-Ig (0.6 µg/ml); inhibition of CD44-Ig binding to plate-coated hyaluronic acid (HA)
[3] = biological target: cynomolgus CD44 (on cells) (cynomolgus monkey); assay: cell-based or functional assay
[4] = biological target: lymphatic vessel endothelial hyaluronan receptor 1 protein (LYVE-1) (R&D, Cat. No. 2089-Ly) (UniProt Q9Y5Y7); assay: ELISA on plate-coated LYVE-1 (50 ng), anti-goat IgG-HRP detection
Sequence of lymphatic vessel endothelial hyaluronan receptor 1 protein (LYVE-1) (R&D, Cat. No. 2089-Ly) (Q9Y5Y7 24-232 limits assumed): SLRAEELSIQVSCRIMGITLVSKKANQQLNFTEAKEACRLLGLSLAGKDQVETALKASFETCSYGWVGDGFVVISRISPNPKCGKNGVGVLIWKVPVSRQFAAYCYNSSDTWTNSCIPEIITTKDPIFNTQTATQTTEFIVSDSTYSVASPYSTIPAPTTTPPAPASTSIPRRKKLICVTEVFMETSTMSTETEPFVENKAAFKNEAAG

Sequence of human CD44 (on cells) (human) (P16070 other isoform, or with tags, fused parts or gaps limits assumed): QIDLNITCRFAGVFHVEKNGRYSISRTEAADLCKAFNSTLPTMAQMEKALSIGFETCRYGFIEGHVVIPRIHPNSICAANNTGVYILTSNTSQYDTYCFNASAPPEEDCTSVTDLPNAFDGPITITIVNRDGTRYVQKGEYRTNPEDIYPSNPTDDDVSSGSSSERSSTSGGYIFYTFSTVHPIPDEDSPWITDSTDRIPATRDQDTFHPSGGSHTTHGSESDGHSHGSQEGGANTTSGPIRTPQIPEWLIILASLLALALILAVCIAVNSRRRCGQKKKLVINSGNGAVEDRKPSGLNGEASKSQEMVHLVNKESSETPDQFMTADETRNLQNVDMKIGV
Sequence of human CD44-IgG1 fusion protein (extracellular domain of human CD44 fused to human IgG1) (human) (chain, as listed by the source limits assumed): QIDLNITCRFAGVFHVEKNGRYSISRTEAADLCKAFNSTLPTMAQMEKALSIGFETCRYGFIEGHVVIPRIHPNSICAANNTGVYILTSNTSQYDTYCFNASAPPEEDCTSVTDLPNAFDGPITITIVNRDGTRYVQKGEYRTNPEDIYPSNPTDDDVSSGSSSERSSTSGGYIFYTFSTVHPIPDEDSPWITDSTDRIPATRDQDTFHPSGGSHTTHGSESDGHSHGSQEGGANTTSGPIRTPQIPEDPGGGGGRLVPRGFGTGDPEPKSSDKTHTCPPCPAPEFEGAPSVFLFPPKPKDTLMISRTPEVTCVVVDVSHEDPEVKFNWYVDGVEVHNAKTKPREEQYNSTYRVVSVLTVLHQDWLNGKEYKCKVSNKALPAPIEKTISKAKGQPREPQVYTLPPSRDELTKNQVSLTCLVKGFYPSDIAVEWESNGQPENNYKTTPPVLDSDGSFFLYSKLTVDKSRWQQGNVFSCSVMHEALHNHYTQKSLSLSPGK
Sequence of cynomolgus CD44 (on cells) (cynomolgus monkey) (P16070 other isoform, or with tags, fused parts or gaps limits assumed): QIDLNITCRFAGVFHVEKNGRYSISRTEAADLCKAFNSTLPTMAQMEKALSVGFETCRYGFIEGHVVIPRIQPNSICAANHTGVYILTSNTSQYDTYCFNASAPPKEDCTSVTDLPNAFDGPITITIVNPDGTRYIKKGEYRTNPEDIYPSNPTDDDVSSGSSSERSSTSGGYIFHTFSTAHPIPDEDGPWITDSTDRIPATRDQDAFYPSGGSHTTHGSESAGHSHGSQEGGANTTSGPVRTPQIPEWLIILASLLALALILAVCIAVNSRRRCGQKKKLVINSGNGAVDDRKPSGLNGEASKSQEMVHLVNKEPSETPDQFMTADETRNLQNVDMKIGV

Row | Substance | IC50 of IL-1β release from purified human PBMC stimulated by HA [1] [µg/mL] | IC50 [2] [µg/mL] | IC50 of reduction of CD44 surface expression on cynomolgus peripheral CD3+ T cells (FACS) [3] [µg/mL] | IC50 of reduction of CD44 surface expression on human peripheral CD3+ T cells (FACS) [1] [µg/mL] | EC50 [4] [µg/mL]
1 | anti-CD44 antibody 515 (BD Bioscience, Cat. No. 550990) | 1.46 | 0.32 | – | – | –
2 | anti-CD44 antibody IM7 (BD Bioscience, Cat. No. 553134) | 1.62 | 1.85 | 9.9 | 1.5 | –
3 | anti-LYVE-1 antibody (R&D, Cat. No. AF 2089) | – | – | – | – | 0.1
